For assay [1], the target named is full-length human RON expressed on HEK293T cells (HEK293T-hRON) (Homo sapiens, UniProt Q04912).
Assay [2] has as its target Recombinant extracellular domain of human RON (rhRON) (human, UniProt Q04912).

Chain of Recombinant extracellular domain of human RON (rhRON) (Q04912 25-957): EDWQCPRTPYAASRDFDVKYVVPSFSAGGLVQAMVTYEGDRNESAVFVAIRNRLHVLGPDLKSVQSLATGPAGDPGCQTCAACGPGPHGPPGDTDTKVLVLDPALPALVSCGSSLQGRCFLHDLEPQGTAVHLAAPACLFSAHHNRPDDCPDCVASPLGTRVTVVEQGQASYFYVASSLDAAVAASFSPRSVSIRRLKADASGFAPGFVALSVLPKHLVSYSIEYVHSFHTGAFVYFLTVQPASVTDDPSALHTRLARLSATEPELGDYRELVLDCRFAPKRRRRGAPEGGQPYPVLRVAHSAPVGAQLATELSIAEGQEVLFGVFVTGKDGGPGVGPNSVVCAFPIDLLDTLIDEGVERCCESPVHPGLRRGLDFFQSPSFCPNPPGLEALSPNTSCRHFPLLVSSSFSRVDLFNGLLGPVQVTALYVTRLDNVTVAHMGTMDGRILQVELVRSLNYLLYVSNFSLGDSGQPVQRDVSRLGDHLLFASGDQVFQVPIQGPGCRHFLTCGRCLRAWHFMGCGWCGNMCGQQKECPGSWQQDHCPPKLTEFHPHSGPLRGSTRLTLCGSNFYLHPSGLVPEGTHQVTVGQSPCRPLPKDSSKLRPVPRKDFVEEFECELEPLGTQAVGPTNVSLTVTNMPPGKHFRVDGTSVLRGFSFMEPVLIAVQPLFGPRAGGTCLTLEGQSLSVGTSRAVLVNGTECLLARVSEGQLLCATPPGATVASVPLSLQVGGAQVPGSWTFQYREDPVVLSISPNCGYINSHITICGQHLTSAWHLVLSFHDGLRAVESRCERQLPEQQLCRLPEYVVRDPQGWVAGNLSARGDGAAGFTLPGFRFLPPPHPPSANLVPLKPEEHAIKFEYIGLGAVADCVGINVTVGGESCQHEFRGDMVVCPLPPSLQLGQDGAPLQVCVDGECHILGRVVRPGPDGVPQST
Chain of full-length human RON expressed on HEK293T cells (HEK293T-hRON) (Q04912 25-1400): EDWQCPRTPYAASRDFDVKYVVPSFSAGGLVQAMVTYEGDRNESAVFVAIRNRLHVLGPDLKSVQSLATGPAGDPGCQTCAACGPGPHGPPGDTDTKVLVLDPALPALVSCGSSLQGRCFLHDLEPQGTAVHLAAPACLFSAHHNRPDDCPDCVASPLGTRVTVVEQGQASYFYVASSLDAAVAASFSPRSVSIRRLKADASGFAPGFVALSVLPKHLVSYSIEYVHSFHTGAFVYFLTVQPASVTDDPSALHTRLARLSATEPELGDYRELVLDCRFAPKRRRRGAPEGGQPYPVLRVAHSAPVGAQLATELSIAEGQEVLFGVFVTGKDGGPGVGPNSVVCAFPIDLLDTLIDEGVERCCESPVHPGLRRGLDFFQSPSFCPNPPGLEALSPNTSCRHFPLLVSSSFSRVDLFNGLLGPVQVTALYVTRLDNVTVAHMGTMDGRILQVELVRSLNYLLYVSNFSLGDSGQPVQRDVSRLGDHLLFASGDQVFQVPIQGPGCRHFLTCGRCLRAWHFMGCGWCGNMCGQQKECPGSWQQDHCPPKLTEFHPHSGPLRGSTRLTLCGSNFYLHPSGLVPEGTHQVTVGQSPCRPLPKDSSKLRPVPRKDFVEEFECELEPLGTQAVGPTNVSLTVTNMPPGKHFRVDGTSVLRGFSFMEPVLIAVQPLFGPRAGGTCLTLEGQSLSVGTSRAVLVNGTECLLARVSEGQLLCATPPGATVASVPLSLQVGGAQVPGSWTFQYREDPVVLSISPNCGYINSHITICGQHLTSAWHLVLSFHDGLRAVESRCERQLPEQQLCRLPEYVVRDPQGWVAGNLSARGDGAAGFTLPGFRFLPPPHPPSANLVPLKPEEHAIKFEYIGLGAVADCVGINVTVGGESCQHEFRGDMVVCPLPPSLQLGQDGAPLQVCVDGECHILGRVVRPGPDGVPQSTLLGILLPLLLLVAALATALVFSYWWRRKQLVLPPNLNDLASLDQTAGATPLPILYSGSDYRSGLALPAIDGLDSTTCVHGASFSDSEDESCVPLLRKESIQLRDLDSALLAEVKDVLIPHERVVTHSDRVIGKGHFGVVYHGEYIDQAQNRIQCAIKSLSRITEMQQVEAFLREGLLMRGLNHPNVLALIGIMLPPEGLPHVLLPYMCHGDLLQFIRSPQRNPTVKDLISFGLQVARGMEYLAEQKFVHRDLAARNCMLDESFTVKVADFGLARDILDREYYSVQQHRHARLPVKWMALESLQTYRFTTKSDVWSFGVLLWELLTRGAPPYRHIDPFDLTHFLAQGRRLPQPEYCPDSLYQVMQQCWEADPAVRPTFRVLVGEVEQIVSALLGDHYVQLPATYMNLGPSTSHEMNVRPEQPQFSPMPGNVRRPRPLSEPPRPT

B1: 8D02 (VHH)
VHH: EVQLVESGGGLVQTGGSLRLSCAASGLTFSDYAMGWFRQAAGKEREFVGVISWGGRHTYYGDFAKGRFTISRENSKNTVYLQMNSLKPEDTAVYTCARKRGMADIAYTHATSYDYWGQGTQVTVSS
As to B1, the binding result in assay [1] and in assay [2] was “binds” in each case.

B2: KY704038 (VHH)
VHH: EVQLVESGGGLVQAGGSLRLSCASSGIAFRLRTMDWYRQAPGNQREWVATITSDYSTDYADSVKGRFTISRDNAQNTVYLQMNSLKPEDTAVYYCHAGGVVWGQGTLVTVSS
With B2, the binding result in assay [1] and in assay [2] was “binds” in each case.

B3: 2C11 (VHH)
VHH: EVQLVESGGGLVQPGGSLRLSCAASGFTFNYYWMYWVRQRPGKGLEWVSAINTGGGTTDYADSVKGRFTISRDNAKSTLYLQMDSLKSEDTAVYYCAKDRRRLIRSEYDYLGQGTQVTVSS
Take B3: the binding result in assay [1] and in assay [2] was “binds” in each case.

B4: 2A02 (VHH)
VHH: EVQLVESGGGTVKAGGSLRLSCAAPRRYHMGWFRQAPGKEREFVTAISSSGGSTSYADSVKGRFTISRDSAKSTVYLQMNSLKPEDTAVYFCAARSGLWMATSTQGHYDYWGQGTQVTVSS
As to B4, the binding result in assay [1] and in assay [2] was “binds” in each case.

B5: 5B10 (VHH)
VHH: EVQLVESGGGLVQAGGSLRLSCATSGRYVMGWFRQAPGQEREFVTSISRSGGSTTYADSVKGRFTISRDSAENTVYLQMNSLKPEDTAVYYCAAWSYYGVAYTSTTSPDYWGQGTLVTVSS
Regarding B5, the binding result in assay [1] and in assay [2] was “binds” in each case.

B6: KY704063 (VHH)
VHH: EVQLVESGGGLVQPGGSLTLSCVAYGITVPDYPIGWFRQSPGKEREGVSCIRRSGGRIVYSDSAKGRFNTSRDNAENTVYLQMNSLAPEDTAVYYCATKCMVEFGDTTYSDYAGLNYWGKGTLVTVSS
With B6, the binding result in assay [2] is reported as “binds”.

B7: KY704065 (VHH)
VHH: EVQLVESGGGLVQAGGSLRLSCAVSNTVFRLRTMDWYRQAPEKRREWVATITSDGSTDYVGAVKGRFTISRDNAKSTMYLQMNNVKPEDTAVYYCYTANFWGQGTLVTVSS
B7: the binding result in assay [2] is “binds”.

B8: 5B04 (VHH)
VHH: EVQLVKSGGGLVQVGGSLRLSCAASGRTFSSYAMGWFRQAPGKERELVAAINWNGGRTYYADFVKGRFTISRDNAKNTVYLQMNSLKPEDTAVYYCAAGHLTSTGVLHPADYYNWDEYDYWGQGTQVTVSS
With B8, the binding result in assay [1] and in assay [2] was “binds” throughout.

B9: 11B09 (VHH)
VHH: EVQLVESGGGLVQAGGSLRLSCAASGRTFSNYAMGWFRQAPGKERDFVAAIDWSGDSISYENTVKGRFTISRDNAKNTMYLQMNSLKPEDTAVYFCATRSVGGISTLRRRYDYWGQGTLVTVSS
Consider B9, for which the binding result in assay [1] and in assay [2] was “binds” in each case.

B10: 8C03 (VHH)
VHH: EVQLVESGGGFVQAGGSLRLSCAASVRIAMGWFRQAPGKEREFVARISASGGSTEYADSVKGRFTISRDSSKSTAYLQMNSLKPEDTAVYYCAARLWNQREYPYWGQGTQVTVSS
Turning to B10, the binding result in assay [1] and in assay [2] was “binds” each time.

B11: 2C01 (VHH)
VHH: EVQLVESGGGLVQAGGSLRLSCAPSERTFRSDVMGWFRQAPGRGREFVAAIAENGDILTRFEGSAKGRFTISRDNANDTVYLQMSSLKPEDTAIYYCAARWGTITTVSHQYHFWGQGTQVTVSS
Regarding B11, the binding result in assay [1] and in assay [2] was “binds” in each case.

B12: 11G06 (VHH)
VHH: EVQLVESGGGLVQPGGSLRLSCAASGSIFSVNAMGWYRQAPGKQRELVASMVSGRSPAYADSVKGRFTISRDNAENTVYLQMNSLKPEDTAVYYCNIKGEYYSRSQYNVWGQGTQVTVSS
B12: the binding result in assay [1] and in assay [2] was “binds” in each case.

B13: 8G04 (VHH)
VHH: EVQLVESGGGLVQAGGSLRLSCAASGRTFSVYPMGWFRQAPGKEREFVATISRRGAISYYQDSVKGRFTISRDSANDTVYLQMNSLRPEDTAVYYCAQYKASSSSYTRGRPDEIVYWGQGTQVTVSS
As to B13, the binding result in assay [1] and in assay [2] was “binds” each time.

B14: KY704039 (VHH)
VHH: EVQLVESGGGLVQAGGSLRLTCAASGNFFNIITMGWFRQAPGKERELVAVDTAGRSISYLDSVKGRFTIVRDNAKNTVILEMNSLTPEDTAVYYCYATGHRSVTGGIYVTWGQGTLVTVSS
As to B14, the binding result in assay [1] and in assay [2] was “binds” each time.

B15: KY704051 (VHH)
VHH: EVQLVESGGGLVQPGGSLRLSCAASGFAFSYYYMYWVRQAPGKGLEWVSRISPGGGTTYYADSVKGRFTISRDNAKNTLYLQMNSLNSEDTAVYYCAKDNRRLIDSGAYDYRGQGTLVTVSS
For the molecule B15, in assay [1], the binding result was “binds”.

B16: 8B01 (VHH)
VHH: EVQLVESRGGTVQAGGSLRLSCAASGRTFSNYAAGWFRQAPGKEREFVAGISAKGGVTYYVDFVKGRFTISRDNAKNTVYLQMNSLKPEDTAVYYCAADGSYGTILATIAENSRISLLKDWGQGTLVTVSS
For the molecule B16, the binding result in assay [1] and in assay [2] was “binds” throughout.

B17: 2F08 (VHH)
VHH: EVQLVESGGGLVQAGGSLRLSCAASGRYPMGWFCQAPGGEREFVAAISRSGASTYYADSVKGRFTIARDSAKNTVYLEMNSLKPEDTAVYYCAAKENYYGDYGLAQNYDYWGQGTQVTVSS
Turning to B17, the binding result in assay [1] and in assay [2] was “binds” throughout.

B18: 2B10 (VHH)
VHH: EVQLVESGGGLVQAGGSLRLSCATSGISFRLSNMGWYRQAPGKSREFVAEITSGGNWNYADSVKGRFTISRDNAKSTVYLQMNSLKPEDTGVYYCNRLGTPLWGQGTQVTVSS
B18: the binding result in assay [1] and in assay [2] was “binds” throughout.

B19: 11F03 (VHH)
VHH: EVQLVESGGGLVQAGGSLRLSCVVSGIYFRLYTMNWYRQALGKQREYVAMITNDGSTNYGASIKGRFTISRDNAKNTVYLQMNNLNPEDTAVYYCNAHDYWGQGTQVTVSS
As for B19, the binding result in assay [1] and in assay [2] was “binds” each time.

B20: 2F12 (VHH)
VHH: EVQLVESGGGLVQAGGSLRLSCAASGSSTYEMGWFRQAPGKEREFVAGINWNGGRTYYADSVKGRFTISRDNAKMTVYLQMNSLKPEDTAAYYCSAAYGLRDAFRMYRSEYPYWGQGTQVTVSS
With B20, the binding result in assay [1] and in assay [2] was “binds” in each case.

B21: 11G10 (VHH)
VHH: EVQLVESGGGSVQAGGSLRLSCAASGRVAMGWFRQAPGKEREFVAAISASGGSSSYADSVKGRFTISRDSAKSTVYLQMNSLEPEDTAVYYCAARARTLGWVSADVSAYDYWGQGTQVTVSS
For B21, the binding result in assay [1] and in assay [2] was “binds” in each case.

B22: 11A09 (VHH)
VHH: EVQLVESGGGLVQPGGSLRLSCAASGFTFSSYWMYWVRQAPGKGLEWVSAVNTGGGTTDYADSVKGRFTISRDNAKDTLYLQMNSLKYEDTAVYYCARDQRRYIRTTYDYHGQGTLVTVSS
As to B22, the binding result in assay [1] and in assay [2] was “binds” throughout.

B23: 2A01 (VHH)
VHH: EVQLVESGGGLVQAGGSLRLSCAASSRTFSTYPMAWFRQAPGKEREFVATISRGGITSYYADSVKGRFTISRDNAKNTVYLQMNSLKPEDTAVYYCAQYKASATAYTRGRPDEIVHWGQGTQVTVSS
For the molecule B23, the binding result in assay [1] and in assay [2] was “binds” each time.

B24: 8E08 (VHH)
VHH: EVQLVESGGGLVQPGGSLRLSCAASGFTLDNHAIGWFRRAPGKERERIGCISSSSGTTAYADSVEGRFTISRDNAKNTVYLQMNSLKPEDTAVYYCAARFQGGFLGCTFAPQTFGYWGQGTQVTVSS
For B24, the binding result in assay [1] and in assay [2] was “binds” throughout.

B25: 11D08 (VHH)
VHH: EVQLVESGGGLVQPGGSLRLSCAASGFTFSSYWMYWVRQAPGKGLEWVSAISPASGSVDYIDSVKGRFTISRDNAQNTLYLRMNSLKSEDTAIYYCAKDSRRLIRSNYETFGLGTQVTVSS
Regarding B25, the binding result in assay [1] and in assay [2] was “binds” throughout.

B26: 2D04 (VHH)
VHH: EVQLVESGGGLVQAGGSLRLSCAASGRIFSVYRVGWFRQAPGKEREIVASINNRNGASTFYADSVKGRFTISRDSAKNTVYLQMRSLRPEDTAVYYCAARDQGTTEYHYWGQGTLVTVSS
On to B26, for which the binding result in assay [1] and in assay [2] was “binds” throughout.

B27: 11G07 (VHH)
VHH: EVQLVESGGGLVQAGGSLRLSCAASGRSFSGDTMGWFLQAPGKEREFVAGINWSSRSTNYADSVKGRFTISRDNAKNTVYLQMNTLKPEDTAVYYCAAGPPSPYIYSRPDLYTYWGQGTQVTVSS
For the molecule B27, the binding result in assay [1] and in assay [2] was “binds” each time.

B28: 5F06 (VHH)
VHH: EVQLVESGGGLVQAGGSLGLSCAASGRVAMGWFRRPPGQERDFVAAISASGATTYYADSVKGRFTISRDSAKTTVYLQMNSLKPEDTAVYYCAARLSWSSDYRSGGSYEHWGQGTQVTVSS
B28: the binding result in assay [1] and in assay [2] was “binds” in each case.

For the origin of these results see publication PMC5385344, “Large Diversity of Functional Nanobodies from a Camelid Immune Library Revealed by an Alternative Analysis of Next-Generation Sequencing Data” (Frontiers in Immunology, 2017).
